According to paper PMC10632456, “Cryo-EM structures of human magnesium channel MRS2 reveal gating and regulatory mechanisms” (Nature Communications, 2023):

Target: the molecule itself
Experiment: cryo-EM structure; purified MRS2 at about 0.5 mg/ml in 20 mM HEPES, 150 mM NaCl, 40 mM MgCl2, 0.003% LMNG, pH 7.3; C5 and C1 reconstructions

B1: human MRS2 (Mitochondrial RNA Splicing 2 magnesium channel) (natural protein, UniProt Q9HD23 71-443, looked up)
chain: TSDVSQATLASVAPVFTVTKFDKQGNVTSFERKKTELYQELGLQARDLRFQHVMSITVRNNRIIMRMEYLKAVITPECLLILDYRNLNLEQWLFRELPSQLSGEGQLVTYPLPFEFRAIEALLQYWINTLQGKLSILQPLILETLDALVDPKHSSVDRSKLHILLQNGKSLSELETDIKIFKESILEILDEEELLEELCVSKWSDPQVFEKSSAGIDHAEEMELLLENYYRLADDLSNAARELRVLIDDSQSIIFINLDSHRNVMMRLNLQLTMGTFSLSLFGLMGVAFGMNLESSLEEDHRIFWLITGIMFMGSGLIWRRLLSFLGRQLEAPLPPMMASLPKKTLLADRSMELKNSLRLDGLGSGRSILTNR
notes: MRS2, human, UniProt Q9HD23; The full-length precursor was expressed; No step that removes the tag is described; also called HsMRS2; MRS2-Mg2+
stoichiometry N: 5
